T1: GST-human NOGO-A56 (human, UniProt Q9NQC3 586-785)
T1 construct: GST-tagged fusion expressed in E. coli BL21 from pGEX-6P1; also called hNOGO; human NOGO 5+6 GST; not shown: Glutathione S-transferase tag encoded by vector pGEX-6P1 (N-terminal, with vector linker)
T1 sequence: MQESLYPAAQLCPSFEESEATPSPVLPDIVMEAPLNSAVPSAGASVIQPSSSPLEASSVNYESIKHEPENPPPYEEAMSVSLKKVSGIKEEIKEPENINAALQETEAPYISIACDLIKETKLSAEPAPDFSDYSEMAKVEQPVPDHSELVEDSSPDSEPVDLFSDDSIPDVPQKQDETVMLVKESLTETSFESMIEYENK


Tests used:
GST-human NOGO-A56 [1] = biological target: T1, GST-human NOGO-A56; test: SPR (Biacore), GST-human NOGO-A56 immobilised, purified antibody as analyte; single experiment
GST-human NOGO-A56 [2] = biological target: T1, GST-human NOGO-A56; test: SPR off-rate ranking, supernatant from small-scale transient transfection over immobilised GST-human NOGO-A56; single experiment
GST-human NOGO-A56 [3] = biological target: T1, GST-human NOGO-A56; test: SPR (Biacore), GST-human NOGO-A56 immobilised, purified antibody as analyte; mean (SD) of 12 runs
GST-human NOGO-A56 [4] = biological target: T1, GST-human NOGO-A56; test: SPR (Biacore), GST-human NOGO-A56 immobilised, purified antibody as analyte; single experiment; remark: listed apart in the source
GST-human NOGO-A56 [5] = biological target: T1, GST-human NOGO-A56; test: SPR (Biacore T100), reverse format: antibody captured on Protein A, human NOGO 5+6 GST as analyte, 1:1 model; mean (SD) of 5 or 6 runs
GST-human NOGO-A56 [6] = biological target: T1, GST-human NOGO-A56; test: SPR (Biacore), GST-human NOGO-A56 immobilised, purified antibody as analyte; single experiment; remark: listed apart in the source
GST-human NOGO-A56 [7] = biological target: T1, GST-human NOGO-A56; test: SPR (Biacore), GST-human NOGO-A56 immobilised, purified antibody as analyte; single experiment (value said to be not typical)

| Binder | Kd (GST-human NOGO-A56 [1]) [nM] | koff (GST-human NOGO-A56 [1]) [s⁻¹] | kon (GST-human NOGO-A56 [1]) [M⁻¹ s⁻¹] | koff (GST-human NOGO-A56 [2]) [s⁻¹] | Kd (GST-human NOGO-A56 [4]) [nM] | koff (GST-human NOGO-A56 [4]) [s⁻¹] | kon (GST-human NOGO-A56 [4]) [M⁻¹ s⁻¹] | Kd (GST-human NOGO-A56 [6]) [nM] | koff (GST-human NOGO-A56 [6]) [s⁻¹] | kon (GST-human NOGO-A56 [6]) [M⁻¹ s⁻¹] | other results |
| --- | --- | --- | --- | --- | --- | --- | --- | --- | --- | --- | --- |
| HcLc (antibody, human IgG1, kappa, V domains shown, also called chimera of 2A10; 2A10 chimeric antibody) VH: QVQLQQPGTELVKPGASVKLSCKASGYTFTSYWMHWVKQRPGQGLEWIGNINPSNGGTNYNEKFKSKATLTVDKSSSTAYMQLSSLTSEDSAVYYCELGQGYWGQGTLVTVSS VL: DIVITQDELSNPVTSGESVSISCRSSKSLLYKDGKTYLNWFLQRPGQSPQLLIYLMSTRASGVSDRFSGSGSGTDFTLEISRVKAEDVGVYYCQQLVEYPLTFGAGTKLELKR | 1.7 | 0.0044 | 2.6e+06 | 0.00392 | 1.42 | 0.0035 | 2.46e+06 | 1.59 | 0.00369 | 2.32e+06 | Kd (GST-human NOGO-A56 [3]): 1.9 nM; koff (GST-human NOGO-A56 [3]): 0.00754 s⁻¹; kon (GST-human NOGO-A56 [3]): 3.92e+06 M⁻¹ s⁻¹; Kd (GST-human NOGO-A56 [5]): 0.41 nM; koff (GST-human NOGO-A56 [5]): 0.000569 s⁻¹; kon (GST-human NOGO-A56 [5]): 1.38e+06 M⁻¹ s⁻¹ |
| H21Lc (antibody, human IgG1, kappa, V domains shown) VH: QVQLVQSGAEVKKPGASVKVSCKASGYTFTSYWMHWVRQRPGQGLEWIGNINPSNGGTNYNEKFKSKATMTRDTSTSTAYMELSSLRSEDTAVYYCELGQGYWGQGTLVTVSS VL: DIVITQDELSNPVTSGESVSISCRSSKSLLYKDGKTYLNWFLQRPGQSPQLLIYLMSTRASGVSDRFSGSGSGTDFTLEISRVKAEDVGVYYCQQLVEYPLTFGAGTKLELKR |  |  |  | 0.00569 |  |  |  |  |  |  |  |
| H24Lc (antibody, human IgG1, kappa, V domains shown) VH: QVQLVQSGAEVKKPGASVKVSCKASGYTFTSYWMHWVKQRPGQGLEWIGNINPSNGGTNYNEKFKSKATLTVDTSTSTAYMELSSLRSEDTAVYYCELGQGYWGQGTLVTVSS VL: DIVITQDELSNPVTSGESVSISCRSSKSLLYKDGKTYLNWFLQRPGQSPQLLIYLMSTRASGVSDRFSGSGSGTDFTLEISRVKAEDVGVYYCQQLVEYPLTFGAGTKLELKR |  |  |  | 0.00383 |  |  |  |  |  |  |  |
| H20Lc (antibody, human IgG1, kappa, V domains shown) VH: QVQLVQSGAEVKKPGASVKVSCKASGYTFTSYWMHWVRQAPGQGLEWIGNINPSNGGTNYNEKFKSKATMTRDTSTSTAYMELSSLRSEDTAVYYCELGQGYWGQGTLVTVSS VL: DIVITQDELSNPVTSGESVSISCRSSKSLLYKDGKTYLNWFLQRPGQSPQLLIYLMSTRASGVSDRFSGSGSGTDFTLEISRVKAEDVGVYYCQQLVEYPLTFGAGTKLELKR |  |  |  | 0.00507 |  |  |  |  |  |  |  |
| H19Lc (antibody, human IgG1, kappa, V domains shown) VH: QVQLVQSGAEVKKPGASVKVSCKASGYTFTSYWMHWVRQRPGQGLEWIGNINPSNGGTNYNEKFKSRATMTRDTSTSTAYMELSSLRSEDTAVYYCELGQGYWGQGTLVTVSS VL: DIVITQDELSNPVTSGESVSISCRSSKSLLYKDGKTYLNWFLQRPGQSPQLLIYLMSTRASGVSDRFSGSGSGTDFTLEISRVKAEDVGVYYCQQLVEYPLTFGAGTKLELKR |  |  |  | 0.00595 |  |  |  |  |  |  |  |
| H22L16 (antibody, human IgG1, kappa, V domains shown, human gamma1 mutated constant region, human kappa) VH: QVQLVQSGAEVKKPGASVKVSCKASGYTFTSYWMHWVKQRPGQGLEWIGNINPSNGGTNYNEKFKSKATMTRDTSTSTAYMELSSLRSEDTAVYYCELGQGYWGQGTLVTVSS VL: DIVMTQSPLSNPVTLGQPVSISCRSSKSLLYKDGKTYLNWFLQRPGQSPQLLIYLMSTRASGVPDRFSGGGSGTDFTLKISRVEAEDVGVYYCQQLVEYPLTFGQGTKLEIKR | 1.47 | 0.0069 | 4.9e+06 | 0.00778 | 1.32 | 0.00767 | 5.83e+06 | 1.33 | 0.00759 | 5.69e+06 |  |
| H16L13 (antibody, human IgG1, kappa) heavy: not shown light: DIVMTQSPLSLPVTLGQPASISCRSSKSLLYKDGKTYLNWFQQRPGQSPQLLIYLMSTRASGVPDRFSGGGSGTDFTLKISRVEAEDVGVYYCQQLVEYPLTFGQGTKLEIKRTVAAPSVFIFPPSDEQLKSGTASVVCLLNNFYPREAKVQWKVDNALQSGNSQESVTEQDSKDSTYSLSSTLTLSKADYEKHKVYACEVTHQGLSSPVTKSFNRGEC |  |  |  | 0.0138 |  |  |  | 2.53 | 0.0121 | 4.76e+06 |  |
| H23L16 (antibody, human IgG1, kappa, V domains shown, human gamma1 mutated constant region, human kappa) VH: QVQLVQSGAEVKKPGASVKVSCKASGYTFTSYWMHWVKQRPGQGLEWIGNINPSNGGTNYNEKFKSKATMTVDTSTSTAYMELSSLRSEDTAVYYCELGQGYWGQGTLVTVSS VL: DIVMTQSPLSNPVTLGQPVSISCRSSKSLLYKDGKTYLNWFLQRPGQSPQLLIYLMSTRASGVPDRFSGGGSGTDFTLKISRVEAEDVGVYYCQQLVEYPLTFGQGTKLEIKR | 3.8 | 0.0064 | 1.9e+06 | 0.00606 | 1.99 | 0.00587 | 2.95e+06 |  |  |  |  |
| H16L16 (antibody, human IgG1, kappa) heavy: not shown light: DIVMTQSPLSNPVTLGQPVSISCRSSKSLLYKDGKTYLNWFLQRPGQSPQLLIYLMSTRASGVPDRFSGGGSGTDFTLKISRVEAEDVGVYYCQQLVEYPLTFGQGTKLEIKRTVAAPSVFIFPPSDEQLKSGTASVVCLLNNFYPREAKVQWKVDNALQSGNSQESVTEQDSKDSTYSLSSTLTLSKADYEKHKVYACEVTHQGLSSPVTKSFNRGEC |  |  |  | 0.00577 |  |  |  |  |  |  | Kd (GST-human NOGO-A56 [7]): 3.4 nM; koff (GST-human NOGO-A56 [7]): 0.004 s⁻¹; kon (GST-human NOGO-A56 [7]): 1.2e+06 M⁻¹ s⁻¹ |
| H1L11 (antibody, human IgG1, kappa, V domains shown) VH: QVQLVQSGAEVKKPGASVKVSCKASGYTFTSYWMHWVRQAPGQGLEWMGNINPSNGGTNYNEKFKSRVTMTRDTSTSTVYMELSSLRSEDTAVYYCELGQGYWGQGTLVTVSS VL: DIVITQSPLSLPVTLGQPASISCRSSKSLLYKDGKTYLNWFQQRPGQSPQLLIYLMSTRASGVPDRFSGGGSGTDFTLKISRVEAEDVGVYYCQQLVEYPLTFGQGTKLEIKR | 22.3 | 0.031 | 1.4e+06 | 0.0196 | 21 | 0.0282 | 1.34e+06 | 18.4 | 0.0219 | 1.19e+06 |  |
| H20L16 (antibody, human IgG1, kappa, V domains shown, human gamma1 mutated constant region, human kappa; also called H20L16 FL) VH: QVQLVQSGAEVKKPGASVKVSCKASGYTFTSYWMHWVRQAPGQGLEWIGNINPSNGGTNYNEKFKSKATMTRDTSTSTAYMELSSLRSEDTAVYYCELGQGYWGQGTLVTVSS VL: DIVMTQSPLSNPVTLGQPVSISCRSSKSLLYKDGKTYLNWFLQRPGQSPQLLIYLMSTRASGVPDRFSGGGSGTDFTLKISRVEAEDVGVYYCQQLVEYPLTFGQGTKLEIKR | 1.7 | 0.0073 | 4.4e+06 | 0.00718 | 1.61 | 0.00847 | 5.24e+06 |  |  |  | Kd (GST-human NOGO-A56 [3]): 1.86 nM; koff (GST-human NOGO-A56 [3]): 0.0102 s⁻¹; kon (GST-human NOGO-A56 [3]): 5.43e+06 M⁻¹ s⁻¹; Kd (GST-human NOGO-A56 [5]): 0.31 nM; koff (GST-human NOGO-A56 [5]): 0.000313 s⁻¹; kon (GST-human NOGO-A56 [5]): 1.01e+06 M⁻¹ s⁻¹ |
| H6L13 (antibody, human IgG1, kappa, V domains shown) VH: QVQLVQSGAEVKKPGASVKVSCKASGYTFTSYWMHWVRQAPGQGLEWIGNINPSNGGTNYNEKFKSRATMTRDTSTSTAYMELSSLRSEDTAVYYCELGQGYWGQGTLVTVSS VL: DIVMTQSPLSLPVTLGQPASISCRSSKSLLYKDGKTYLNWFQQRPGQSPQLLIYLMSTRASGVPDRFSGGGSGTDFTLKISRVEAEDVGVYYCQQLVEYPLTFGQGTKLEIKR | 6.4 | 0.014 | 2.2e+06 |  | 7.76 | 0.0157 | 2.02e+06 | 8.1 | 0.0155 | 1.91e+06 |  |
| H24L16 (antibody, human IgG1, kappa, V domains shown, human gamma1 mutated constant region, human kappa) VH: QVQLVQSGAEVKKPGASVKVSCKASGYTFTSYWMHWVKQRPGQGLEWIGNINPSNGGTNYNEKFKSKATLTVDTSTSTAYMELSSLRSEDTAVYYCELGQGYWGQGTLVTVSS VL: DIVMTQSPLSNPVTLGQPVSISCRSSKSLLYKDGKTYLNWFLQRPGQSPQLLIYLMSTRASGVPDRFSGGGSGTDFTLKISRVEAEDVGVYYCQQLVEYPLTFGQGTKLEIKR | 3.7 | 0.0069 | 1.9e+06 | 0.00585 | 2.49 | 0.00572 | 2.3e+06 |  |  |  |  |
